Molecular target: Biotinylated AF546-labeled BtuF (BtuF*), construct of the smFRET-Q experiments (E. coli)
Experiment: smFRET-Q

Sequence of Wild type BtuCD reconstituted in nanodiscs (P06609 whole entry): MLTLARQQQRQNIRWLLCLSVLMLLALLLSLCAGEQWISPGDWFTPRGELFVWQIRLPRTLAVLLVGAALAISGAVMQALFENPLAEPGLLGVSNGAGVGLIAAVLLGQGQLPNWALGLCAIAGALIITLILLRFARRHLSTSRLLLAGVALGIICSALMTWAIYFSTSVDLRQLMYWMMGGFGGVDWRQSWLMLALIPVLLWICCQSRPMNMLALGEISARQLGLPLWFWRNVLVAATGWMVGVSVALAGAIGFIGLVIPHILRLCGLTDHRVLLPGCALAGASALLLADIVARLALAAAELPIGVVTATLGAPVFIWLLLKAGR
Sequence of Wild type BtuCD reconstituted in nanodiscs (P06611 whole entry): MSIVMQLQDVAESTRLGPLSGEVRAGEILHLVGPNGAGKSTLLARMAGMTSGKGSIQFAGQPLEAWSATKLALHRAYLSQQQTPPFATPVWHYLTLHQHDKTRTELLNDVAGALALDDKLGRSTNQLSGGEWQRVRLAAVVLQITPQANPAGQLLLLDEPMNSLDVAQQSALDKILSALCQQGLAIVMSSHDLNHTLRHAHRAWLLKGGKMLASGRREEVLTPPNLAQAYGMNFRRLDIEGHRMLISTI

## Wild type BtuCD reconstituted in nanodiscs (from UniProt P06609 1-326; P06611 1-249) (complex)
  occupancy time of the H state (locked BtuCD-F* complex) with 0.5 mM Mg-ATP: 1 s
